Data as given in US20100055095A1 (Genentech, published 2010).

Columns and labels:
Test in all cases: co-immunoprecipitation from transfected Cos 7 cells on HA beads, western blot with anti-HA and anti-p110α
[1] = target: T1, p110α, wild-type (protein encoded by PIK3CA, catalytic subunit of PI3K) (human, UniProt P42336 1-1068)
T1 construct: also called p110alpha WT
From the text: (§1) Proteins were immunoprecipitated using HA beads, separated by SDS-PAGE, transferred to nitrocellulose, and detected using anti-HA and anti-p110α antibodies. […] In the header row of Table 2, the terms “p110alpha E545K” and “p110alpha H1047R” refer to two known mutational “hot spots” in p110α which result in constitutively active p110α.

[2] = target: T2, p110α E545K (human, UniProt P42336 1-1068)
T2 construct: Known hot-spot mutant, constitutively active p110α; also called p110alpha E545K
From the text: as §1

[3] = target: T3, p110α H1047R (human, UniProt P42336 1-1068)
T3 construct: Known hot-spot mutant, constitutively active p110α; also called p110alpha H1047R
From the text: as §1

Measured: binding result

T3 sequence (P42336 whole entry H1047R): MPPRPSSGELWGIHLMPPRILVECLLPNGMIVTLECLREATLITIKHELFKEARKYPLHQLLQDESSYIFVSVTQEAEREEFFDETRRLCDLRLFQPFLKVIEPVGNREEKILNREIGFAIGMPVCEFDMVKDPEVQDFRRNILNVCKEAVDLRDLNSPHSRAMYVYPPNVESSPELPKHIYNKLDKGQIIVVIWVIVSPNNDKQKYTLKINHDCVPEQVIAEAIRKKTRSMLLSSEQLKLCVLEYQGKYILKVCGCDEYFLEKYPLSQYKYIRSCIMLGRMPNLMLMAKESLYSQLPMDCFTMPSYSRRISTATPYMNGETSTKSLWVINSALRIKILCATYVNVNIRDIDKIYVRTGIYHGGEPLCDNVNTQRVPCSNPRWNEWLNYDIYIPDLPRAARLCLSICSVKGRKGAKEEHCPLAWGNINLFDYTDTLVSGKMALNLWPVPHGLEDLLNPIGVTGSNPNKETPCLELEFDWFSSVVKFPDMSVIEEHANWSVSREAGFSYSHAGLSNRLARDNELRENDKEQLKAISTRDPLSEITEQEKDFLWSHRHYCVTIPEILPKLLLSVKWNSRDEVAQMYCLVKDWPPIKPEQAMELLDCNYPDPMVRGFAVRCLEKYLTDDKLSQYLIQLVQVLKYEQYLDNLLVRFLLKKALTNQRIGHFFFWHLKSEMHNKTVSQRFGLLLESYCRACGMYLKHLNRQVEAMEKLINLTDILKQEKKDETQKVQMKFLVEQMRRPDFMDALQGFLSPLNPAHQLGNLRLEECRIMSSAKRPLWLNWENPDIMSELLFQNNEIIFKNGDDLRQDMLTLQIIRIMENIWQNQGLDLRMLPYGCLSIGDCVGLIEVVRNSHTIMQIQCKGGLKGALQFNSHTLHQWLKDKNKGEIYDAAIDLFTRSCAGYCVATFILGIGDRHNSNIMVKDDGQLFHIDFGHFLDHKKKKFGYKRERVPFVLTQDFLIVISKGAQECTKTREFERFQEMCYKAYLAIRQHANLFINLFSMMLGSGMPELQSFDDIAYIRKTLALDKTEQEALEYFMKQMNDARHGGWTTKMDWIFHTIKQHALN
T1 sequence (P42336 whole entry): as the sequence (P42336 whole entry H1047R) above, with R1047H counted along it
T2 sequence (P42336 whole entry E545K): as the sequence (P42336 whole entry H1047R) above, with E545K, R1047H counted along it

B1: N-terminally HA-tagged p85α R162stop (other)
chain: MSAEGYQYRALYDYKKEREEDIDLHLGDILTVNKGSLVALGFSDGQEARPEEIGWLNGYNETTGERGDFPGTYVEYIGRKKISPPTPKPRPPRPLPVAPGSSKTEADVEQQALTLPDLAEQFAPPDIAPPLLIKLVEAIEKKGLECSTLYRTQSSSNLAEL
notes: Stop codon at R162; also called p85 R162stop; 162R>O; not shown: N-terminal HA tag
no binding: all assays above
